# From patent publication US20050244966A1, “Insulin producing cells” (Ramot At Tel Aviv University Ltd., priority 2003, published 2005)
# Columns and labels:
# [1] = system: FH-B-TPN cells; assay: Insulin content of FH-B-TPN cells (RIA/ELISA of cell extracts); assay type: cell-based, human; settings: for Insulin content: RIA; for Fold increase (insulin content): vs CM
# Experimental: FH cells were isolated and cultured as described (19), in Dulbecco's modified Eagle's medium containing 25 mM glucose and supplemented with 10% fetal bovine serum (FBS), 100 U/ml penicillin, 100 μg/ml streptomycin, 5 μM hydrocortisone, and 5 μg/ml insulin. A subclone of FH cells that was stably transduced with hTERT, designated FH-B-hTERT (FH-B), was cultured in the same medium, as described (20). FH-B cells transduced with the Pdx1 gene (see below), designated FH-B-TPN cells, were maintained in the same culture medium, with the exception of hydrocortisone and insulin (complete medium CM). For incubation in serum-free medium, the cells were placed in DMEM containing antibiotics, in the presence of 100 ng/ml insulin, 55 ng/ml transferrin, and 50 pg/ml selenium (ITS, Sigma). For all experiments activin A (Cytolab/PreproTech Asia, Rehovot, Israel) was added at a final concentration of 4 nM. except for those aimed at promoting differentiation of FH-B-TPN cells towards the beta-cell phenotype. There, addition of Act-A, as well as betacellulin (BTC, R&D Systems, Minneapolis, Minn.), nicotinamide (NA), exendin-4, and hepatocyte growth factor (HGF) (the last 3 compounds from Sigma-Aldrich) was at concentrations detailed herein below.
# (§1) Insulin secretion from FH-B-TPN cells was measured by static incubation as previously described (2). Cells were plated in 24-well plates at 10^5 cells per well. The cells were preincubated for 1 hour in Krebs-Ringer buffer (KRB), followed by incubation for the indicated period of time in KRB containing 0.5 mM 1-isobutyl 3-methylxanthine (IBMX) and glucose at various concentrations. The cells were then extracted in acetic acid, and the amount of insulin in the buffer and cell extract was determined by radioimmunoassay (RIA) using the INSIK-5 kit (DiaSorin, Vercelli, Italy) according to the manufacturer. This assay has <20% crossreactivity with proinsulin. In addition, insulin content was determined using an ELISA kit (Diagnostic Systems Laboratories, Webster, Tex. or (Mercodia, Uppsala, Sweden), which recognizes only mature insulin. Insulin content was normalized to total cellular protein, measured by the Bio-Rad (Hercules, Calif.) Protein Assay kit. Human C-peptide in the cell extract was determined using a RIA kit (DiaSorin, Vercelli, Italy) or ELISA kit (Mercodia, Uppsala, Sweden) according to the manufacturers.
# [2] = system: FH-B-TPN cells; assay: RT-PCR analysis of gene expression in FH-B-TPN cells; assay type: cell-based, human; settings: 4 nM activin A; FIG. 7
# Experimental: Total RNA was extracted from cultured cells, mature human hepatocytes (obtained from Incara Cell Technologies, North Carolina), and human pancreatic islets (obtained through the Juvenile Diabetes Research Foundation Islet Distribution Program), using commercial kits (High Pure RNA isolation kit, Roche Molecular Biochemicals, Mannhein, Germany; Trizol Reagent, Invitrogen Life Technologies, Carlsbad, Calif.).
# Specific transcripts were analyzed with Promega (Madison, Wis.) RT-PCR kit or GeneAmp Gold RNA PCR kit (Perkin Elmer Corp., Indianapolis, Ind.) or Superscript III RT-PCR (Invitrogene Life Technologies, Carlsbad, Calif.) according to the manufacturers. The absence of DNA contamination in RNA samples was confirmed with PCR primers flanking an intron. cDNA was amplified for 40 cycles (94° C. for 45 sec; annealing under conditions indicated in Table 1 below for 45 sec; 72° C. for 40 sec), using the primer pairs listed in Table 1 below.
# PCR products were separated by electrophoresis in 1.5%-2.5% agarose gels and visualized by ethidium bromide staining.
# [3] = system: FH-B-TPN cells; assay: Immunofluorescence analyses of protein expression in FH-B-TPN cells; assay type: cell-based, human; settings: 6 days in serum-free medium with ITS and activin A; FIG. 8
# Experimental: FH-B-TPN cells plated in 6-well plates on sterilized coverslips were fixed in 4% paraformaldehyde. For cytoplasmic antigens, cells were blocked for 10 min at room temperature in 5% bovine serum albumin, 5% FBS and 0.1% Triton X-100, and stained with the antibodies as detailed in Table 2 diluted in blocking solution, for 1 hour at room temperature.
# For immunostaining of nuclear antigens, cells were permeabilized in 0.25% NP40 for 10 min at room temperature prior to blocking, followed by incubation with the primary antibody as detailed in Table 2 hereinabove. The stained cells were photographed under a Zeiss confocal microscope. FH-B, Cos7 or 293T cells were used as negative controls. Nuclei were visualized with DAPI (Roche) staining for 5 minutes at room temperature. Kidney tissue was fixed in 4% paraformaldehyde, embedded in paraffin, and sectioned. Sections were rehydrated, washed in PBS, and unmasked (if needed) in Unmasking Solution (Vector Laboratories, Burlingame, Calif.) according to the manufacturer. Sections were blocked for 2 h in 0.2% Tween 20 and 0.2% gelatin, incubated overnight at 4° C. with primary antibodies and 2 h at room temperature with the secondary antibodies as detailed in Table 2 hereinabove, stained with DAPI, and mounted. BrdU staining was performed as previously described (28b).
# [4] = system: FH-B-TPN cells; assay: Human C-peptide in cell extract and culture medium (ELISA); assay type: cell-based; settings: SFM (6 d) then 3 nM Act-A in SFM (3 d)
# Experimental: as §1
# [5] = system: FH-B-TPN cells; assay: Cell doubling time by cell counting; TUNEL assay; assay type: cell-based, human
# From the text: The cell doubling time, as determined by cell counting, was not affected by Act-A treatment in CM. […] No apoptotic cells were detected using a TUNEL assay under any of the conditions (data not shown).
# [6] = FH-B-TPN cells, 4 nM in CM (6 d)
# [7] = SFM (6 d) then 3 nM Act-A in SFM (3 d)
molecule,measurement,setting,value
"betacellulin (protein, UniProt P35070 32-111, looked up, betacellulin (R&D Systems), soluble factor) Betacellulin: DGNSTRSPETNGLLCGDPEENCAATTTQSKRKGHFSRCPKQYKHYCIKGRCRFVVAEQTPSCVCDEGYIGARCERVDLFY",Insulin content,[1]; [6],264 ± 7 ng/10^6 cells
same,Fold increase (insulin content),[1]; [6],1.4
"activin A (protein, UniProt P08476 311-426, looked up) Inhibin beta A chain: GLECDGKVNICCKKQFFVSFKDIGWNDWIIAPSGYHANYCEGECPSHIAGTSGSSLSFHSTVINHYRMRGHSPFANLKSCCVPTKLRPMSMLYYDDGQNIIKKDIQNMIVEECGCS",Insulin content compared with serum-free medium without activin A,[1]; 6 days in serum-free medium supplemented with both ITS and activin A,further doubling
same,Insulin content,[1]; [6],729 ± 55 ng/10^6 cells
same,Insulin content,"[1]; FH-B-TPN cells, Act-A 3 nM in CM (3 d) + CM (6 d), mean ± SD (n = 3)",1661 ± 319 ng/10^6 cells
same,Fold increase (insulin content),"[1]; FH-B-TPN cells, Act-A 3 nM in CM (3 d) + CM (6 d)",8.8
same,Insulin content,"[1]; FH-B-TPN cells, Act-A 3 nM in CM (3 d) + SFM (6 d), mean ± SD (n = 3)",1493 ± 229 ng/10^6 cells
same,Fold increase (insulin content),"[1]; FH-B-TPN cells, Act-A 3 nM in CM (3 d) + SFM (6 d)",7.9
same,Insulin content,"[1]; FH-B-TPN cells, Act-A 3 nM in CM (3 d), mean ± SD (n = 3)",1399 ± 269 ng/10^6 cells
same,Fold increase (insulin content),"[1]; FH-B-TPN cells, Act-A 3 nM in CM (3 d)",7.4
same,Insulin content,"[1]; FH-B-TPN cells, Act-A 3 nM in SFM (3 d), mean ± SD (n = 3)",2143 ± 179 ng/10^6 cells
same,Fold increase (insulin content),"[1]; FH-B-TPN cells, Act-A 3 nM in SFM (3 d)",11.4
same,Concentration giving maximal (optimal) increase in insulin content,"[1]; FH-B-TPN cells, Act-A 1-8 nM in regular medium (CM) for 6 days, FIG. 9",3 nM
same,Fold increase (insulin content),"[1]; FH-B-TPN cells, SFM (6 d) + Act-A 3 nM in SFM (3 d)",33
same,Increase over insulin content of cells incubated 9 days in SFM without Act-A,[1]; [7],2.6 fold
same,Insulin content as share of the cellular protein content,[1]; [7],6%
same,Insulin content relative to normal human pancreatic islets,[1]; [7],about 60%
same,Share of stored insulin in the form of mature protein (ELISA vs RIA),[1]; [7],95%
same,Glucagon mRNA,[2],disappeared after an overnight treatment
same,PAX4 and GLUT2 mRNAs,[2],appeared following 3 days of treatment
same,PP staining,[3],disappeared
same,"Percent of cells stained for GK, PC1/3, and PC2",[3],increase
same,Percent of cells stained for NGN3,[3],significant decrease
same,"Percentage of cells stained for ISL1, NKX6.1, and NKX2.2",[3],significant increase
same,Human C-peptide secreted into the culture medium,[4],43.5±1.3 ng/10^6 cells
same,Human C-peptide levels in cells,[4]; ELISA,5153±180 ng/10^6 cells
same,Cell doubling time compared with cells growing in CM,[5],not affected
